Key:
[1] = biological target: MPER-Fluc-Bpe fusion protein (Bordetella pertussis (Fluc-Bpe); HIV-1 (gp41 MPER epitope)); assay: gel filtration chromatography, complex against fusion protein alone
[2] = biological target: MPER-GlpF fusion protein (E. coli (GlpF); HIV-1 (gp41 MPER epitope)); assay: size exclusion chromatography, complex against GlpF alone
[3] = biological target: MPER-AdiC fusion protein (Salmonella enterica (AdiC); HIV-1 (gp41 MPER epitope)) (UniProt P60065)
[4] = biological target: MPER-AdiC fusion protein (Salmonella enterica (AdiC); HIV-1 (gp41 MPER epitope)) (UniProt P60065); assay: gel filtration chromatography, complex against AdiC alone
[5] = biological target: MPER-Fluc-Bpe fusion protein (Bordetella pertussis (Fluc-Bpe); HIV-1 (gp41 MPER epitope)); assay: negative stain EM 2-D class averages, 1 dimer:0.3 Fab molar ratio

| Substance | shift in the retention time [1] | elution volume shift [2] | stoichiometry (Fab per AdiC dimer) (Fab per AdiC dimer) [3] | elution volume shift [4] | percent of total particles in the doubly-occupied class [5] |
| --- | --- | --- | --- | --- | --- |
| 10E8v4 Fab fragment | 2 mL | 1 mL | 1 | 0.5 mL |  |
| VRC42 Fab fragment |  |  |  |  | 2.5% |

Source: patent publication US20230174629A1
